Here are results for seven molecules from patent US20230127248A1 (AILERON THERAPEUTICS, published 2023).

One may read the IC50 as the midpoint of a concentration-inhibition curve. A low value points to inhibition by little substance.

The target in one experiment is T1, MDM2 (human, UniProt Q00987 1-138, limits assumed).
T1 construct: also called HDM2; human double minute 2
The experiment is described as follows: IC50 against MDM2; assay format and competitor not described with the table.

In experiment [1] the target is T2, MCL-1 (Myeloid cell leukemia 1) (UniProt Q07820 172-327, limits assumed).
T2 construct: Construct used in the IC50 assay is not described
T2 sequence (Q07820 172-327 limits assumed): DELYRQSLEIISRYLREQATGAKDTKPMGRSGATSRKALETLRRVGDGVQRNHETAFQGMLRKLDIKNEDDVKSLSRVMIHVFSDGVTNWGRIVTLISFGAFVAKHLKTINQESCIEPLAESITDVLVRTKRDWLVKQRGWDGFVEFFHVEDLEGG
Kind of experiment: IC50 against MCL-1, Table 4b; assay format not stated.

For a further experiment, the target named is T3, BCL-XL (UniProt Q07817 1-209).
T3 construct: Construct used in the IC50 assay is not described; also called BCL-X1
T3 sequence (Q07817 1-209): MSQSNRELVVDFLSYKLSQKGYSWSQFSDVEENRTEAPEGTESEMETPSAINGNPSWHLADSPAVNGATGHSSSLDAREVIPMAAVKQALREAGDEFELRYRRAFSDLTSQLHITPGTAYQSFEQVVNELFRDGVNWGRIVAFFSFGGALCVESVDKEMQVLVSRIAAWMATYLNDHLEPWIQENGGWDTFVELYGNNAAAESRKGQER
Kind of experiment: IC50 against BCL-XL, Table 4b; assay format not stated.

Bridge positions count the residues as written; N and C are the ends. Square brackets hold non-standard residues; d marks the D form. Phe(4-F) = N[C@@H](Cc1ccc(F)cc1)C(=O)O; R8 = C=CCCCCCC[C@@](C)(N)C(=O)O; hLeu = CC(C)CC[C@H](N)C(=O)O; S5 = C=CCCC[C@](C)(N)C(=O)O; Nle = CCCC[C@H](N)C(=O)O

T1 sequence (Q00987 1-138 limits assumed): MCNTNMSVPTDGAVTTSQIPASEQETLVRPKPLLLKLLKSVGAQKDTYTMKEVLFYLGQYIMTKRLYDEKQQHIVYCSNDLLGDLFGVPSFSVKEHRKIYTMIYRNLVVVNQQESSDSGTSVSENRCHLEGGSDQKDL

B1: SP590 (Table 1b): Ac-LTF$rAYWAQL$A-NH2 (peptide)
peptide: Ac-LTF[R8]AYWAQL[S5]A-NH2
modifications: staple 4-11
SMILES: CC(=O)N[C@@H](CC(C)C)C(=O)N[C@H](C(=O)N[C@@H](Cc1ccccc1)C(=O)N[C@]1(C)CCCCCCC=CCCC[C@@](C)(C(=O)N[C@@H](C)C(N)=O)NC(=O)[C@H](CC(C)C)NC(=O)[C@H](CCC(N)=O)NC(=O)[C@H](C)NC(=O)[C@H](Cc2c[nH]c3ccccc23)NC(=O)[C@H](Cc2ccc(O)cc2)NC(=O)[C@H](C)NC1=O)[C@@H](C)O
With B1, the IC50 with MDM2 is 141 nM.

With Ac-LTF[R8]AYWAQL[S5]AA[Nle]A-NH2 (staple 4-11, i, i+7 stapled p53-derived macrocycle) [SP68: Ac-LTF$r8AYWAQL$AANleA-NH2], in the experiment with MDM2, the IC50 stood at 29 nM.

B2: SP-962 (peptidomimetic macrocycle derived from the MCL-1/BCL-XL/BCL-2-binding helix of BIM) (peptide)
peptide: Ac-IWIAQALR[R8][hLeu]GDAFN[S5]Y[Phe(4-F)]A-NH2
modifications: staple 9-16
SMILES: CC[C@H](C)[C@H](NC(C)=O)C(=O)N[C@@H](Cc1c[nH]c2ccccc12)C(=O)N[C@H](C(=O)N[C@@H](C)C(=O)N[C@@H](CCC(N)=O)C(=O)N[C@@H](C)C(=O)N[C@@H](CC(C)C)C(=O)N[C@@H](CCCNC(=N)N)C(=O)N[C@]1(C)CCCCCCC=CCCC[C@@](C)(C(=O)N[C@@H](Cc2ccc(O)cc2)C(=O)N[C@@H](Cc2ccc(F)cc2)C(=O)N[C@@H](C)C(N)=O)NC(=O)[C@H](CC(N)=O)NC(=O)[C@H](Cc2ccccc2)NC(=O)[C@H](C)NC(=O)[C@H](CC(=O)O)NC(=O)CNC(=O)[C@H](CCC(C)C)NC1=O)[C@@H](C)CC
notes: Stapled BIM BH3 peptide, 19 residues
As for B2, the figures for the IC50 (in experiment [1]; with BCL-XL) were 27 nM and 13 nM, respectively.

Molecule Ac-LTF[R8]AYWAQL[S5]AAAAAA[dA]-NH2 (staple 4-11; also: single isomer iso1) [SP317: Ac-LTF$r8AYWAQL$AAAAAAa-NH2 (iso1)] registered an IC50 with MDM2 of 10 nM.

B3: SP-810 (peptidomimetic macrocycle derived from the MCL-1/BCL-XL/BCL-2-binding helix of BIM) (peptide)
peptide: Ac-IWIAQELR[R8]IGDEFN[S5]YYARR-NH2
modifications: staple 9-16
SMILES: CC[C@H](C)[C@H](NC(C)=O)C(=O)N[C@@H](Cc1c[nH]c2ccccc12)C(=O)N[C@H](C(=O)N[C@@H](C)C(=O)N[C@@H](CCC(N)=O)C(=O)N[C@@H](CCC(=O)O)C(=O)N[C@@H](CC(C)C)C(=O)N[C@@H](CCCNC(=N)N)C(=O)N[C@]1(C)CCCCCCC=CCCC[C@@](C)(C(=O)N[C@@H](Cc2ccc(O)cc2)C(=O)N[C@@H](Cc2ccc(O)cc2)C(=O)N[C@@H](C)C(=O)N[C@@H](CCCNC(=N)N)C(=O)N[C@@H](CCCNC(=N)N)C(N)=O)NC(=O)[C@H](CC(N)=O)NC(=O)[C@H](Cc2ccccc2)NC(=O)[C@H](CCC(=O)O)NC(=O)[C@H](CC(=O)O)NC(=O)CNC(=O)[C@H]([C@@H](C)CC)NC1=O)[C@@H](C)CC
notes: Stapled BIM BH3 peptide, 21 residues
Consider B3, for which, in the experiment with BCL-XL, the 50% inhibitory concentration (IC50) is 9.2 nM.

B4: SP-809 (peptidomimetic macrocycle derived from the MCL-1/BCL-XL/BCL-2-binding helix of BIM) (peptide)
peptide: Ac-IWIAQALR[R8]IGDEFN[S5]YYARR-NH2
modifications: staple 9-16
SMILES: CC[C@H](C)[C@H](NC(C)=O)C(=O)N[C@@H](Cc1c[nH]c2ccccc12)C(=O)N[C@H](C(=O)N[C@@H](C)C(=O)N[C@@H](CCC(N)=O)C(=O)N[C@@H](C)C(=O)N[C@@H](CC(C)C)C(=O)N[C@@H](CCCNC(=N)N)C(=O)N[C@]1(C)CCCCCCC=CCCC[C@@](C)(C(=O)N[C@@H](Cc2ccc(O)cc2)C(=O)N[C@@H](Cc2ccc(O)cc2)C(=O)N[C@@H](C)C(=O)N[C@@H](CCCNC(=N)N)C(=O)N[C@@H](CCCNC(=N)N)C(N)=O)NC(=O)[C@H](CC(N)=O)NC(=O)[C@H](Cc2ccccc2)NC(=O)[C@H](CCC(=O)O)NC(=O)[C@H](CC(=O)O)NC(=O)CNC(=O)[C@H]([C@@H](C)CC)NC1=O)[C@@H](C)CC
notes: as for B3
With B4, the IC50 was found to be 10.6 nM in experiment [1] and 3.9 nM with BCL-XL.

B5: SP-815 (peptidomimetic macrocycle derived from the MCL-1/BCL-XL/BCL-2-binding helix of BIM) (peptide)
peptide: Ac-IWIAQALR[R8]IGDAFN[S5]YYA-NH2
modifications: staple 9-16
SMILES: CC[C@H](C)[C@H](NC(C)=O)C(=O)N[C@@H](Cc1c[nH]c2ccccc12)C(=O)N[C@H](C(=O)N[C@@H](C)C(=O)N[C@@H](CCC(N)=O)C(=O)N[C@@H](C)C(=O)N[C@@H](CC(C)C)C(=O)N[C@@H](CCCNC(=N)N)C(=O)N[C@]1(C)CCCCCCC=CCCC[C@@](C)(C(=O)N[C@@H](Cc2ccc(O)cc2)C(=O)N[C@@H](Cc2ccc(O)cc2)C(=O)N[C@@H](C)C(N)=O)NC(=O)[C@H](CC(N)=O)NC(=O)[C@H](Cc2ccccc2)NC(=O)[C@H](C)NC(=O)[C@H](CC(=O)O)NC(=O)CNC(=O)[C@H]([C@@H](C)CC)NC1=O)[C@@H](C)CC
notes: as for B2
B5: the concentration for half-maximal inhibition (IC50) turned out to be 8.4 nM in experiment [1] and 22.4 nM with BCL-XL.
